Laboratory results published in patent US20240024490.

Key:
BRD4 = BRD4 (UniProt O60885)
BTK = BTK (UniProt Q06187)
ABL = ABL (UniProt P00519)
Chain of ABL (P00519 whole entry): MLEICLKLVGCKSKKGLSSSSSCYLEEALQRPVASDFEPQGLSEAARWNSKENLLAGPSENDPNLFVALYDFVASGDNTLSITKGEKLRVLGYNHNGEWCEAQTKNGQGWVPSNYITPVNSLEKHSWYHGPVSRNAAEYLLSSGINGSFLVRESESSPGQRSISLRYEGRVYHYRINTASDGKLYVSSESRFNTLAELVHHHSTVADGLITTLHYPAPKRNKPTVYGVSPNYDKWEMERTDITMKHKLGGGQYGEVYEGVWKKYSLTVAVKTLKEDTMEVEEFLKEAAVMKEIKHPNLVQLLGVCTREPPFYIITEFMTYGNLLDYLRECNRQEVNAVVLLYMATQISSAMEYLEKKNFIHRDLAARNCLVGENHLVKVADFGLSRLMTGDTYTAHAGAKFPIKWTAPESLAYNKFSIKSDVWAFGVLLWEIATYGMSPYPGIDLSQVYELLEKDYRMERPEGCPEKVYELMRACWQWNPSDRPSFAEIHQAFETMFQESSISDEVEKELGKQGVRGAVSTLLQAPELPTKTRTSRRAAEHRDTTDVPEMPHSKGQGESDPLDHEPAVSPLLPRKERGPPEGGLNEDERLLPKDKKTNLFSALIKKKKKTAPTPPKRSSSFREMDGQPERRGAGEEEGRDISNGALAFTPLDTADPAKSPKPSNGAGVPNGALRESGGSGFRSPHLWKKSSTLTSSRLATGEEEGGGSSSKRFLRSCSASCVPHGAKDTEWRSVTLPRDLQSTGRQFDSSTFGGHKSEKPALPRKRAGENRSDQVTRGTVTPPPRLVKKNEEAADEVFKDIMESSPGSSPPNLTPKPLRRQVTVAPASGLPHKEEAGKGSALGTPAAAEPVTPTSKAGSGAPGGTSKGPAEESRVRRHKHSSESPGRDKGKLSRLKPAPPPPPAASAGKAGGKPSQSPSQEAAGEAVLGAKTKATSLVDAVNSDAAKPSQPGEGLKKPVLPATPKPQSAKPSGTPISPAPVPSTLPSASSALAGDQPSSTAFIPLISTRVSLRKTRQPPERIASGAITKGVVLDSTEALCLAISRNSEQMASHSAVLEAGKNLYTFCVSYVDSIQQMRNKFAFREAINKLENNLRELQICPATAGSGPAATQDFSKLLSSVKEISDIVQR

Chain of BTK (Q06187 whole entry): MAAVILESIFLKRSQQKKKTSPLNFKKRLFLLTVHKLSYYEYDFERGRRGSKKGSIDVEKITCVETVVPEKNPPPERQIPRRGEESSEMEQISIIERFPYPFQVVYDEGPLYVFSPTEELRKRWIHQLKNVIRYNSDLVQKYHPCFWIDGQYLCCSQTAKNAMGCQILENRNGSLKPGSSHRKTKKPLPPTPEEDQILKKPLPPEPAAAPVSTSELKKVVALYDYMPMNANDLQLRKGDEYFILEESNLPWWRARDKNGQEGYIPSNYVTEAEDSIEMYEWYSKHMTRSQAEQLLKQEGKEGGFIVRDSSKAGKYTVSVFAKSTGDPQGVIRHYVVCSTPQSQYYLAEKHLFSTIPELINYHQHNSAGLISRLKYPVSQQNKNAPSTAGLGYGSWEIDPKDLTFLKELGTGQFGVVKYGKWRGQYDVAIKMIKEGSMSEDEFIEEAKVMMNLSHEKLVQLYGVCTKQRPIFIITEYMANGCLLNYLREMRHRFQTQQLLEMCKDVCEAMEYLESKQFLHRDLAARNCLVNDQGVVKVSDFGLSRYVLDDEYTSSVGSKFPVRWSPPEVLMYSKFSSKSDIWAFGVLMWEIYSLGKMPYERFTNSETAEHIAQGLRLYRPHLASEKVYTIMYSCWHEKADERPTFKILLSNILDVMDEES

Substance: PKC
- phosphorylation of BRD4 by PKC in vitro, with PHICS4 (BRD4): BRD4 phosphorylation was detected in the presence of PHICS4
- phosphorylation of BRD4 by PKC in vitro, with the chimeric molecule made from (R)-JQ1 (BRD4): absence of phosphorylation when a chimeric molecule generated from the inactive enantiomer of (S)-JQ1 [i.e., (R)-JQ1] was used
- phosphorylation of BTK by PKC in vitro, with PHICS6 (PKC-motif antibody) (BTK): the degree of phosphorylation was higher in the presence of PHICS6
- phosphorylation of BTK by PKC in vitro, with the inactive analog iPHICS6 (BTK): the inactive PHICS analogs lowered phosphorylation induction
- phosphorylation of BTK by PKC in vitro, without PHICS (PKC-motif antibody) (BTK): some phosphorylation of BTK by PKC was observed in the absence of PHICS (quantified using PKC-motif antibody)
- phosphorylation of ABL by PKC in vitro, with PHICS5 (ABL): An ABL-targeting PHICS5 formed using dihydropyrazole core also induced phosphorylation of ABL, compare to DMSO or activator VS1012 treated controls
- phosphorylation of ABL by PKC in vitro, with VS558 (ABL): bifunctional molecule VS558 based on a known inhibitor dasatinib, that binds to a different pocket of ABL kinase [16], also induced its phosphorylation by PKC in vitro
